Assay results as given in article PMC7476737, “Targeting 14-3-3ε-CDC25A interactions to trigger apoptotic cell death in skin cancer” (Oncotarget, 2020).
[ ]: non-standard residue; d: D form. pT = C[C@@H](OP(=O)(O)O)[C@H](N)C(=O)O; pS = N[C@@H](COP(=O)(O)O)C(=O)O

Target: T1, 14-3-3ε (human (endogenous in SCC12B.2 and nHEK), UniProt P62258 1-255)
T1 sequence (looked up): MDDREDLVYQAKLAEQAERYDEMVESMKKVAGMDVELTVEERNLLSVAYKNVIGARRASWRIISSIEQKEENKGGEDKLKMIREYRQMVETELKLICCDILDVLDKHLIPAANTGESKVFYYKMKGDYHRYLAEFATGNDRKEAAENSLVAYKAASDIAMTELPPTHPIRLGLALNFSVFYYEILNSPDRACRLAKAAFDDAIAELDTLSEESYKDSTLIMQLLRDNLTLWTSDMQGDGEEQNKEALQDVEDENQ
Assay: cell-based or functional assay

B1: pS peptide (173-186 fragment of human CDC25A with phospho-Ser178) (peptide, UniProt P30304 173-186, looked up)
peptide: Ac-TQRQN[pS]APARMLSS-NH2
SMILES: CSCC[C@H](NC(=O)[C@H](CCCNC(=N)N)NC(=O)[C@H](C)NC(=O)[C@@H]1CCCN1C(=O)[C@H](C)NC(=O)[C@H](COP(=O)(O)O)NC(=O)[C@H](CC(N)=O)NC(=O)[C@H](CCC(N)=O)NC(=O)[C@H](CCCNC(=N)N)NC(=O)[C@H](CCC(N)=O)NC(=O)[C@@H](NC(C)=O)[C@@H](C)O)C(=O)N[C@@H](CC(C)C)C(=O)N[C@@H](CO)C(=O)N[C@@H](CO)C(N)=O
For B1, the “IC50 of SCC12B.2 cell viability (neutral red assay, 0-75 μM peptide, 96 h); the pair blocked is 14-3-3ε with CDC25A” value was 29 µM.

B2: pT peptide (501-515 fragment of human CDC25A with phospho-Thr507) (peptide, UniProt P30304 501-515, looked up)
peptide: Ac-FRTKSR[pT]WAGEKSKR-NH2
SMILES: CC(=O)N[C@@H](Cc1ccccc1)C(=O)N[C@@H](CCCNC(=N)N)C(=O)N[C@H](C(=O)N[C@@H](CCCCN)C(=O)N[C@@H](CO)C(=O)N[C@@H](CCCNC(=N)N)C(=O)N[C@H](C(=O)N[C@@H](Cc1c[nH]c2ccccc12)C(=O)N[C@@H](C)C(=O)NCC(=O)N[C@@H](CCC(=O)O)C(=O)N[C@@H](CCCCN)C(=O)N[C@@H](CO)C(=O)N[C@@H](CCCCN)C(=O)N[C@@H](CCCNC(=N)N)C(N)=O)[C@@H](C)OP(=O)(O)O)[C@@H](C)O
With B2 the “IC50 of SCC12B.2 cell viability (neutral red assay, 0-75 μM peptide, 96 h); the pair blocked is 14-3-3ε with CDC25A” value was 22.6 µM.
